In the assay the target is human PD-L1 (programmed death-ligand 1) (human) (UniProt Q9NZQ7). As to the kind of experiment: cell-based or functional assay.
UniProt Q9NZQ7, sequence (Q9NZQ7 19-290): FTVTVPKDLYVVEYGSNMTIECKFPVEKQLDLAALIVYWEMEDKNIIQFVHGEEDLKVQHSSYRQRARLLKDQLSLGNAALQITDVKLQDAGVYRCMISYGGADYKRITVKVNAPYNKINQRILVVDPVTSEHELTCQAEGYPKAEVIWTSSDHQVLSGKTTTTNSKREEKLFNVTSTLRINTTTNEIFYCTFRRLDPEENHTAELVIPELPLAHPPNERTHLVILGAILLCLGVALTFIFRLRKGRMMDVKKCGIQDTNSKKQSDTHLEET

On to Untargeted (BcII10 VHH) chimera, for which the STAT1 phosphorylation (phospho STAT1 MFI, FACS) in MDA-MB-321 cells came out at 100 ng/mL.
